Assay results reported in paper PMC5080769, “Bacillus subtilis 5′-nucleotidases with various functions and substrate specificities” (BMC Microbiology, 2016).

What was measured:
Test in all cases: phosphate release, molybdate assay, A820
AraL = target: T1, AraL (Bacillus subtilis, UniProt P94526); assay type: biochemical; details: 10 mM substrate, 12 h, 50 mM Tris-HCl pH 7.8, 10 mM MgCl2, 250 mM KCl, 1 mM NH4Cl, 37 °C
T1 construct: full-length ORF, C-terminal His6 (pET28b, NdeI/XhoI), expressed in E. coli BL21(DE3), TALON purified
T1 sequence (P94526 whole entry): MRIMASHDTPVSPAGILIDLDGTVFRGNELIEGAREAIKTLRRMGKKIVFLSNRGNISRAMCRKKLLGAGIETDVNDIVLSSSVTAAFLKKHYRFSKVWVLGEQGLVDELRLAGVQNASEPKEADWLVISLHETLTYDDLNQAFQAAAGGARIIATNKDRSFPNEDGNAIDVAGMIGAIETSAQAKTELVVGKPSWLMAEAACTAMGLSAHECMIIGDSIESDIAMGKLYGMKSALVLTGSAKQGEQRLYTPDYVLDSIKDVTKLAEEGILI

YqeG = target: T2, YqeG (Bacillus subtilis, UniProt P54452); assay type: biochemical; details: 10 mM substrate, 12 h, 50 mM Tris-HCl pH 7.8, 10 mM MgCl2, 250 mM KCl, 1 mM NH4Cl, 37 °C
T2 construct: gene pgpP; full-length ORF, C-terminal His6 (pET28b, NdeI/HindIII), expressed in E. coli BL21(DE3), TALON purified
T2 sequence (P54452 whole entry): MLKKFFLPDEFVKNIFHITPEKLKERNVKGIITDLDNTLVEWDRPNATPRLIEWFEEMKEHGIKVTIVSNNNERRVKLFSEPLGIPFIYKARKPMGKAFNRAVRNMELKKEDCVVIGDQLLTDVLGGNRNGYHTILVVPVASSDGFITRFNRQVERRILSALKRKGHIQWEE

[1] = substrate: Nc1ncnc2c1ncn2[C@@H]1O[C@H](COP(=O)(O)O)[C@@H](O)[C@H]1O; assay type: biochemical, Bacillus subtilis; details: 50 mM Tris-HCl pH 7.8, 10 mM MgCl2, 250 mM KCl, 1 mM NH4Cl, 37 °C
[2] = substrate: Nc1nc2c(ncn2[C@@H]2O[C@H](COP(=O)(O)O)[C@@H](O)[C@H]2O)c(=O)[nH]1; assay type: biochemical, Bacillus subtilis; details: 50 mM Tris-HCl pH 7.8, 10 mM MgCl2, 250 mM KCl, 1 mM NH4Cl, 37 °C
[3] = substrate: Nc1ccn([C@@H]2O[C@H](COP(=O)(O)O)[C@@H](O)[C@H]2O)c(=O)n1; assay type: biochemical, Bacillus subtilis; details: 50 mM Tris-HCl pH 7.8, 10 mM MgCl2, 250 mM KCl, 1 mM NH4Cl, 37 °C
[4] = substrate: O=c1ccn([C@@H]2O[C@H](COP(=O)(O)O)[C@@H](O)[C@H]2O)c(=O)[nH]1; assay type: biochemical, Bacillus subtilis; details: 50 mM Tris-HCl pH 7.8, 10 mM MgCl2, 250 mM KCl, 1 mM NH4Cl, 37 °C
[5] = substrate: O=P(O)(O)OC(CO)CO; assay type: biochemical, Bacillus subtilis; details: 50 mM Tris-HCl pH 7.8, 10 mM MgCl2, 250 mM KCl, 1 mM NH4Cl, 37 °C

O=P(O)(O)OC[C@H]1OC(O)[C@H](O)[C@@H](O)[C@@H]1O (some centres unmarked) [G6P]
phosphate release, molybdate assay, A820 (AraL): AraL activity was enhanced particularly against G6P at the higher concentration
phosphate release, molybdate assay, A820 (YqeG): YqeG hydrolyzed GMP and G6P only at the higher concentration

Nc1nc2c(ncn2[C@@H]2O[C@H](COP(=O)(O)O)[C@@H](O)[C@H]2O)c(=O)[nH]1 [GMP]
phosphate release, molybdate assay, A820 (YqeG): YqeG hydrolyzed GMP and G6P only at the higher concentration

B1: YcsE (Bacillus subtilis subsp. subtilis str. 168) (protein)
chain: MSVQREDVDIKLIAIDMDGTLLNDEQLISDENRKAIREAEDKGVYVVISTGRTLMTCRELAESLKLSSFLITANGSEIWDSNFNLVERKLLHTDHIQMMWDLRNKHNTNFWASTVNKVWRGEFPENITDHEWLKFGFDIEDDDIRNEVLEELRKNKELEITNSSPTNIEVNALGINKAAALAKVTEKLGFTMENVMAMGDSLNDIAMIKEAGLGVAMGNAQDIVKETADYITDTNIEDGVAKAIRHWVL
notes: full-length ORF, C-terminal His6 (pET28b, NdeI/XhoI), expressed in E. coli BL21(DE3), TALON purified
Km [1]: 8.6 ± 0.80 mM
Km [2]: 10.3 ± 0.12 mM
Km [3]: 4.7 ± 0.23 mM
Km [4]: 8.5 ± 0.69 mM

B2: YktC (Bacillus subtilis subsp. subtilis str. 168) (protein)
chain: MTNWTEIDEIAKKWIREAGARITQSMHESLTIETKSNPNDLVTNIDKETEKFFIDRIQETFPGHRILGEEGQGDKIHSLEGVVWIIDPIDGTMNFVHQQRNFAISIGIFENGEGKIGLIYDVVHDELYHAFSGRGAYMNETKLAPLKETVIEEAILAINATWVTENRRIDQSVLAPLVKRVRGTRSYGSAALELANVAAGRIDAYITMRLAPWDYAAGCVLLNEVGGTYTTIEGEPFTFLENHSVLAGNPSIHKTIFEEYLHARK
notes: full-length ORF, C-terminal His6 (pET28b, BamHI/HindIII), expressed in E. coli BL21(DE3), TALON purified
Km [2]: 1.9 ± 0.026 mM
Km [5]: 0.49 ± 0.035 mM
Km [3]: 1.6 ± 0.017 mM
Km [4]: 2.4 ± 0.052 mM
